In assay [1] the target is HCV E1E2 heterodimers (expressed from recombinant adenovirus Ad/E1E2p7NS2) (hepatitis C virus). As to the kind of experiment: pull-down; E1E2 on mAb H53 beads; Huh-7/pcDNA3.1 cells lysed in Bj/EDTA, ratio of the CD81 band to that in TX/EDTA.
Assay [2] shares this target. As to the kind of experiment: pull-down; E1E2 on mAb H53 beads; Huh-7/EWI-2FLAG^fur cells lysed in Bj/EDTA, ratio of the CD81 band to that in TX/EDTA.
For assay [3], the target named is T1, CD81 (endogenous, human cells) (human (endogenous in Daudi, Ramos, …, UniProt P60033 1-236)).
T1 sequence: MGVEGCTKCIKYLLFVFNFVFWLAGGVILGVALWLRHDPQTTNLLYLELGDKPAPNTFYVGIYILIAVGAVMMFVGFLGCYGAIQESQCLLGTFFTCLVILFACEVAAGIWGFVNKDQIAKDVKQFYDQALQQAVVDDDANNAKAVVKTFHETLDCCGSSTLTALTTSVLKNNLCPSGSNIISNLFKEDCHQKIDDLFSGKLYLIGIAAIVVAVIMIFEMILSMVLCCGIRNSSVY
Briefly: cell-based or functional assay.

B1: CD81 (endogenous, human cells) (natural protein)
chain: MGVEGCTKCIKYLLFVFNFVFWLAGGVILGVALWLRHDPQTTNLLYLELGDKPAPNTFYVGIYILIAVGAVMMFVGFLGCYGAIQESQCLLGTFFTCLVILFACEVAAGIWGFVNKDQIAKDVKQFYDQALQQAVVDDDANNAKAVVKTFHETLDCCGSSTLTALTTSVLKNNLCPSGSNIISNLFKEDCHQKIDDLFSGKLYLIGIAAIVVAVIMIFEMILSMVLCCGIRNSSVY
On to B1, for which the ratio [CD81 band intensity in E1E2 IP in Bj/EDTA buffer]/[CD81 band intensity in E1E2 IP in TX/EDTA buffer] in assay [1] amounted to 0.84; in assay [2] it was 0.27.

B2: EWI-2wint with the C-terminal FLAG epitope, produced by furin cleavage of EWI-2FLAG^fur in Huh-7 cells (domain or fragment)
chain: QAPTSPPRMTVHEGQELALGCLARTSTQKHTHLAVSFGRSVPEAPVGRSTLQEVVGIRSDLAVEAGAPYAERLAAGELRLGKEGTDRYRMVVGGAQAGDAGTYHCTAAEWIQDPDGSWAQIAEKRAVLAHVDVQTLSSQLAVTVGPGERRIGPGEPLELLCNVSGALPPAGRHAAYSVGWEMAPAGAPGPGRLVAQLDTEGVGSLGPGYEGRHIAMEKVASRTYRLRLEAARPGDAGTYRCLAKAYVRGSGTRLREAASARSRPLPVHVREEGVVLEAVAWLAGGTVYRGETASLLCNISVRGGPPGLRLAASWWVERPEDGELSSVPAQLVGGVGQDGVAELGVRPGGGPVSVELVGPRSHRLRLHSLGPEDEGVYHCAPSAWVQHADYSWYQAGSARSGPVTVYPYMHALDTLFVPLLVGTGVALVTGATVLGTITCCFMKRLRKR
On to B2, for which, in assay [3], the “inhibition of the infectivity of HCVcc expressing Renilla luciferase on Huh-7 cells expressing EWI-2FLAG^fur (clone A6), relative to Huh-7 cells; the pair that is blocked: HCV glycoproteins with CD81” value came out at 80%.

The record behind these values is PMC2270906, “The CD81 Partner EWI-2wint Inhibits Hepatitis C Virus Entry” (PLoS ONE, 2008).
